{"source": "patent US7410776B2", "about": "“Polypeptides, their production and use” (Takeda Pharmaceutical Company Limited, priority 1997, dated 2008)", "origin": "cited, not measured here", "target": "T1, APJ (Homo sapiens, UniProt P35414)", "T1 construct": "host or cells: CHO cells", "T1 sequence (P35414 1-380)": "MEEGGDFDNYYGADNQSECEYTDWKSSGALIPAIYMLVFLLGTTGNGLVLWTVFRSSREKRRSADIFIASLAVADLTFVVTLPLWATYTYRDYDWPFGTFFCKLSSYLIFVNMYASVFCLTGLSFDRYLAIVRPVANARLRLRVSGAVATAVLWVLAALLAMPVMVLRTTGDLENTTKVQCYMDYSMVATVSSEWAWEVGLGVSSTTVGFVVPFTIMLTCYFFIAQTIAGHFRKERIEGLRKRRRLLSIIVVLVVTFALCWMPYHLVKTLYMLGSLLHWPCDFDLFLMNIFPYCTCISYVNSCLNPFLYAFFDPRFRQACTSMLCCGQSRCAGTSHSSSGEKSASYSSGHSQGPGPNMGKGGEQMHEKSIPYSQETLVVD", "settings": "APJ expressed in CHO cells"}
{"substance": "angiotensin II (DRVYIHPF; Angiotensin-2; UniProt P01019 25-32, looked up) [known peptide tested on APJ expressed in CHO cells]", "values": [{"measurement": "reaction with APJ", "value": "no reaction was detected at all"}]}
